The values that follow come from PMC3985513 (Biochemistry, 2014).

Like-named read-outs stand apart in the source and are kept apart here.

First the molecules themselves.
B2: SwHaCE (H-NOX-associated cyclic-di-GMP processing enzyme from Shewanella woodyi, diguanylate cyclase/phosphodiesterase) (enzyme, UniProt B1KIH5 1-637, looked up)
chain: MSALEDREQVFLRRIDREKRARQQAEQILNEKSKELWNTNQKLQQINEQLDQMVKTRTSELEIAKTNAELESLAHKNAKERFQLAMRATSAGVWERNIDEDAWYFSDRLIALFGYSREELLFGFKNLSFIHNEDKKPLLHVLKNHFRNGKAFDFECRVLTSEGRYKWFWIVGQAVWNDKGEVVRIAGSFSDIDERVENSKLVEKMAHYDHLTMVPNRVLYNQKLDIALSLADKEQSHLAVILIDLNDFKQVNDTLGHSAGDHLLQHIANQFKLNISESDIVARLGGDEFSIVLTNIANRQAVVTKCEQVLEIISRPFYYQKNLIIPKISMGIALYPEYGMTRDELMVNADLAMYKAKGEKHMGSGFQFCEQEHINKNMERTELSSELCEAITENEFFMHFQPIIDLSNGEVTFAEALIRWKHTNKGVLLPEKFISIAEDSGLITRLGKLSIELVAKQIDRMMAAKRLQKLTINISPSHFLSQSFMEDLKEILSVYPKMSSFITIEITEVVFLLNMEVAKKTVIELHDMGITISLDDFGTGYSSFKYLQQLPIDVIKLDCSFIAELDIDPSHRNIASTIIELAHSLEIKVIAEGVETNSQLVFLQDHHCDFAQGSYFFKPLSVIDFLHMQRCISLPAK

The target in series [1] is B2. Nature of the series: AUC.
For series [2], the target named is B2. Nature of the series: AUC. This is another data set of the same source.
In series [3] the target is B2. The series can be described thus: other fluorescence titration.
The series “AUC” deals with the molecule itself. Nature of the series: AUC.

B1: SwH-NOX (heme-nitric oxide/oxygen binding protein from Shewanella woodyi), wild type (natural protein, UniProt B1KIH6 1-182, looked up)
chain: MMGMVFTGLMELIEDEFGYETLDTLLESCELQSEGIYTSVGSYDHQELLQLVVKLSEVSSVPVTELVRLFGKKLFVELIEGHPEIANEMKDSFDLLSKIDSFIHVEVYKLYPQAELPKFTCDRLGDNDIRLHYQSKRPFASFAEGLLDGCAEYFKEDFTISRTPETQDSETDVIFNITRAPR
Take B1: the “stoichiometry N” value in series [1] and in series [2] was 1 H-NOX per HaCE (2+2) throughout. The same molecule registered a Kd in series [3] of 2500 to 3000 nM.

Turning to B2, in the series “AUC”, the “stoichiometry N” value came to 2.

As usually defined, the stoichiometry N is a count of units in the complex or per binding partner. What is called Kd is the equilibrium constant for the complex coming apart. Low values mean a tighter complex, high ones a looser complex.
